Laboratory results reported in patent publication US20170157251A1 (MacroGenics, published 2017).

Columns and labels:
Test in all cases: cell-based or functional assay
human CD19 on cells [1] = target: T1, human CD19 on cells (human, UniProt P15391 20-556)
T1 sequence (looked up): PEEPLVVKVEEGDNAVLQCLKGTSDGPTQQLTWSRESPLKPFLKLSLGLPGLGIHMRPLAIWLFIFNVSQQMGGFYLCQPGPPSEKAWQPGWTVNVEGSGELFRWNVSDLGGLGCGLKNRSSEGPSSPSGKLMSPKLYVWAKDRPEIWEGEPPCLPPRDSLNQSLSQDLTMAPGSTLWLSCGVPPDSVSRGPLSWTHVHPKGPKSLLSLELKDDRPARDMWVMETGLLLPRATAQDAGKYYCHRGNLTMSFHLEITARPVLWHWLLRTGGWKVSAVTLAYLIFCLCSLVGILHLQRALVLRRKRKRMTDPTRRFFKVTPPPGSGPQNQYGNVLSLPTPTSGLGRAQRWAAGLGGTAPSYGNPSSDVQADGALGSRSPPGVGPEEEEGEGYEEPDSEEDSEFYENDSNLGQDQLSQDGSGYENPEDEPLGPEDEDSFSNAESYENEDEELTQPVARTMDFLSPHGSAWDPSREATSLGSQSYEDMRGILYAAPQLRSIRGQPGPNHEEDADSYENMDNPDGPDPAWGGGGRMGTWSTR

human CD19 on cells [2] = target: T1, human CD19 on cells; remark: listed apart in the source
human CD19 on cells [3] = target: T1, human CD19 on cells; remark: listed apart in the source
[4] = target: cynomolgus monkey CD19 on B cells (cynomolgus monkey)
human CD19 on cells [5] = target: T1, human CD19 on cells; remark: listed apart in the source
human CD19 on cells [6] = target: T1, human CD19 on cells; remark: listed apart in the source

B1: DART-A (CD19×CD3 bi-specific monovalent Fc diabody) (bispecific antibody)
chain 1: ENVLTQSPATLSVTPGEKATITCRASQSVSYMHWYQQKPGQAPRLLIYDASNRASGVPSRFSGSGSGTDHTLTISSLEAEDAATYYCFQGSVYPFTFGQGTKLEIKGGGSGGGGEVQLVESGGGLVQPGGSLRLSCAASGFTFSTYAMNWVRQAPGKGLEWVGRIRSKYNNYATYYADSVKGRFTISRDDSKNSLYLQMNSLKTEDTAVYYCVRHGNFGNSYVSWFAYWGQGTLVTVSSASTKGEVAACEKEVAALEKEVAALEKEVAALEKGGGDKTHTCPPCPAPEAAGGPSVFLFPPKPKDTLMISRTPEVTCVVVDVSHEDPEVKFNWYVDGVEVHNAKTKPREEQYNSTYRVVSVLTVLHQDWLNGKEYKCKVSNKALPAPIEKTISKAKGQPREPQVYTLPPSREEMTKNQVSLWCLVKGFYPSDIAVEWESNGQPENNYKTTPPVLDSDGSFFLYSKLTVDKSRWQQGNVFSCSVMHEALHNHYTQKSLSLSPGK
chain 2: QAVVTQEPSLTVSPGGTVTLTCRSSTGAVTTSNYANWVQQKPGQAPRGLIGGTNKRAPWTPARFSGSLLGGKAALTITGAQAEDEADYYCALWYSNLWVFGGGTKLTVLGGGGSGGGGQVTLRESGPALVKPTQTLTLTCTFSGFSLSTSGMGVGWIRQPPGKALEWLAHIWWDDDKRYNPALKSRLTISKDTSKNQVFLTMTNMDPVDTATYYCARMELWSYYFDYWGQGTTVTVSSASTKGKVAACKEKVAALKEKVAALKEKVAALKE
chain 3: not shown
notes: Three covalently bonded chains; one CD19 site and one CD3 site; Fc with L234A/L235A, knob/hole, H435R on third chain; also called CD19×CD3 bi-specific molecule; CD19×CD3 bi-specific DART-A
- EC50 of cytotoxicity against Raji/GF target cells with cynomolgus monkey PBMCs as effector cells (E:T = 30:1) (human CD19 on cells [1]): 0.013 pM
- EC50 of redirected killing of HBL-2 cells, human T cells, E:T 10:1 (average) (human CD19 on cells [1]): 10.5 pM
- EC50 of redirected killing of Jeko-1 cells, human T cells, E:T 10:1 (average) (human CD19 on cells [1]): 0.146 pM
- EC50 of redirected killing of Raji/GF cells, human T cells, E:T 10:1 (average) (human CD19 on cells [1]): 0.307 pM
- EC50 of redirected killing of Raji/GF cells, E:T = 2.5:1, 48 hours (human CD19 on cells [2]): 1.08 pM
- EC50 of redirected killing of Raji/GF cells, E:T = 5:1, 24 hours (human CD19 on cells [2]): 0.67 pM
- EC50 of redirected killing of Raji/GF cells, E:T = 5:1, 48 hours (human CD19 on cells [2]): 0.38 pM
- EC50 of redirected killing of Raji/GF cells, E:T = 10:1, 24 hours (human CD19 on cells [2]): 0.14 pM
- EC50 of redirected killing of Raji/GF cells, E:T = 10:1, 48 hours (human CD19 on cells [2]): 0.0441 pM
- EC50 of redirected killing of Raji/GF cells, E:T = 1:1, 72 hours (human CD19 on cells [3]): 2.79 pM
- EC50 of redirected killing of Raji/GF cells, E:T = 1:1, 96 hours (human CD19 on cells [3]): 0.44 pM
- EC50 of redirected killing of Raji/GF cells, E:T = 2.5:1, 72 hours (human CD19 on cells [3]): 1.54 pM
- EC50 of redirected killing of Raji/GF cells, E:T = 2.5:1, 96 hours (human CD19 on cells [3]): 0.422 pM
- EC50 of autologous B cell depletion, cynomolgus monkey PBMCs, donor Cyno 5 (E:T = 3:1) [4]: 166 pM
- EC50 of autologous B cell depletion, cynomolgus monkey PBMCs, donor Cyno 6 (E:T = 2:1) [4]: 859 pM
- EC50 of autologous B cell depletion, cynomolgus monkey PBMCs, donor Cyno 7 (E:T = 3:1) [4]: 107 pM
- EC50 of autologous B cell depletion, cynomolgus monkey PBMCs, donor Cyno 8 (E:T = 7:1) [4]: 239 pM
- mean EC50 of autologous B cell depletion, cynomolgus monkey PBMCs [4]: 343 pM
- EC50 of autologous B cell depletion, human PBMCs, donor Human 5 (E:T = 8:1) (human CD19 on cells [5]): 6.27 pM
- EC50 of autologous B cell depletion, human PBMCs, donor Human 6 (E:T = 8:1) (human CD19 on cells [5]): 2.75 pM
- EC50 of autologous B cell depletion, human PBMCs, donor Human 7 (E:T = 5:1) (human CD19 on cells [5]): 5.52 pM
- EC50 of autologous B cell depletion, human PBMCs, donor Human 8 (E:T = 9:1) (human CD19 on cells [5]): 1.84 pM
- mean EC50 of autologous B cell depletion, human PBMCs (human CD19 on cells [5]): 4.2 pM
- mean EC50 of IFN-γ release, CTL assay, purified human T cells with Raji/GF tumor cells (E:T = 10:1), n = 2 (human CD19 on cells [6]): 5.51 pM
- mean EC50 of IL-2 release, CTL assay, purified human T cells with Raji/GF tumor cells (E:T = 10:1), n = 2 (human CD19 on cells [6]): 6.32 pM
- mean EC50 of TNF-α release, CTL assay, purified human T cells with Raji/GF tumor cells (E:T = 10:1), n = 2 (human CD19 on cells [6]): 3.71 pM
- mean EC50 of cytotoxicity, CTL assay, HBL-2 (n = 5), human T cells E:T = 10:1 (human CD19 on cells [6]): 0.11 pM
- mean EC50 of cytotoxicity, CTL assay, Jeko-1 (n = 3), human T cells E:T = 10:1 (human CD19 on cells [6]): 0.15 pM
